Laboratory results: article PMC9605926, “Safety of [^177Lu]Lu-NeoB treatment: a preclinical study characterizing absorbed dose and acute, early, and late organ toxicity” (European Journal of Nuclear Medicine and Molecular Imaging, 2022)
Values joined by “and” are separate entries in the source; they are usually repeats but may differ in a detail not shown here. Equal entries are not always repeated. Where two headings read alike, the source gives them in different places.

How the values were obtained:
[1] = Biodistribution of [177Lu]Lu-NeoB in healthy Balb/c mice, single i.v. injection, organ uptake by gamma counter; assay type: in vivo; conditions: male, mouse, pancreas, iv, total radioactivity, 1 h p.i., read-out: Pancreatic uptake
Description: Both the biodistribution and the radiotoxicity of [^177Lu]Lu-NeoB were studied after administration of 3 different dosages of the radioligand: 40 MBq/400 pmol [^177Lu]Lu-NeoB, 80 MBq/800 pmol [^177Lu]Lu-NeoB, and 120 MBq/1200 pmol [^177Lu]Lu-NeoB. The different dosages were acquired by diluting the stock [^177Lu]Lu-NeoB solution with PBS + kolliphor HS 15 (1 mg/mL). [^177Lu]Lu-NeoB was administered intravenously (tail) to conscious animals in a total volume of 200 µL.
Each dosage of [^177Lu]Lu-NeoB was injected in N = 15 healthy male animals. At 5 different time points post injection (p.i.) (t = 1, 4, 24, 48, and 96 h), 3 animals per dosage group were sacrificed, after which blood and organs were collected and measured to determine radioactivity uptake.
Since in the radiotoxicity studies animals received 3 injections of the radioligand at 1-week intervals, an additional group of 3 male animals were injected twice with 120 MBq/1200 pmol [^177Lu]Lu-NeoB at a 7 days (168 h) interval. […] In addition, to determine the amount of radioactivity remaining in the blood and organs right before a second injection, 3 additional male animals were injected with 40 MBq/400 pmol [^177Lu]Lu-NeoB and the biodistribution was determined at t = 168 h. […]
In the biodistribution study, the adrenal glands, brain, intestines, heart, kidneys, liver, lungs, mammary fat pad, pancreas, muscle, spleen, stomach, prostate gland (M), testes (M), ovaries (F), and urinary bladder were collected, weighed, and measured for radioactivity uptake using a gamma counter (1480 WIZARD automatic γ counter; PerkinElmer). To calculate the percentage injected activity (%IA), a vial containing 200 µL of a 1:1000 dilution of the injected [^177Lu]Lu-NeoB solutions was also measured in the gamma counter. The %IA of all organs and tumor was corrected for the percentage of radioactivity left measured in the tail (injection site).

[2] = tested on: healthy Balb/c mice; assay: Toxicity study, clinical chemistry; assay type: in vivo, mouse; conditions: 5, 11, 19, 30, 43 wk, mean±SD
Description: Five different experimental groups (10 male and 10 female healthy animals per group; n = 100) were included in the radiotoxicity study and treated as follows: control group 1: 3 × vehicle (PBS + kolliphor HS 15 (1 mg/mL)); control group 2: 3 × 1200 pmol [^175Lu]Lu-NeoB; treatment group 1: 3 × 40 MBq/400 pmol [^177Lu]Lu-NeoB; treatment group 2: 3 × 80 MBq/800 pmol [^177Lu]Lu-NeoB; and treatment group 3: 3 × 120 MBq/1200 pmol [^177Lu]Lu-NeoB.
Animals received 3 injections with an interval of 7 days between each injection.
In addition, the following clinical chemistry parameters were measured: sodium, potassium chloride, calcium, glucose, creatinine, urea, alanine aminotransferase (ALT), aspartate aminotransferase (AST), alkaline phosphatase (ALP), amylase, lipase, and cholesterol, using the Roche/Hitachi cobas c systems according to the standard protocol. To reach the volume necessary for measuring the clinical chemistry parameters, the blood plasma was diluted 3–5 times with demineralized water.

[3] = tested on: mouse kidneys; assay: Binary logistic regression of absorbed kidney dose versus renal histopathology; assay type: in vivo; conditions: 19 weeks, males and females combined, n = 30; 95% CI: 6.66–11.18 Gy
Description: Statistical analysis was performed using GraphPad PRISM software (version 5). Significance levels were set at 5%. A simple binary logistic regression analysis was performed to determine a dose–effect relation between the absorbed dose and the histopathological findings in the kidneys using the log-likelihood ratio test as a significance indicator. The weight gain over time of control group 2 and treatment groups 1, 2, and 3 was compared to control group 1 by performing a two-way multiple comparison analysis of variance (ANOVA) with a Bonferroni correction. Significant outliers in the blood values set were detected with the Grubbs’ test and excluded from the data set. At a given time point, the measurements of all study groups were compared by performing a one-way ANOVA and in case of significance a Tukey test to correct for multiple comparisons. All data are represented as mean ± standard deviation (SD).
Binary logistic regression analysis was performed to determine a dose–effect relationship for the incidence of renal toxicity (Fig. 5).

[4] = tested on: pancreas; conditions: 100 days after once weekly for 3 consecutive weeks 37 MBq/400 pmol; cited from earlier work
Source text: As mentioned above, the GRPR-expressing pancreas is often named as a potential dose-limiting organ for GRPR-targeting radionuclide therapy. Pancreatitis can be diagnosed by an increase in serum lipase and amylase levels, neither of which were consistently found in this study. Furthermore, no histopathological signs of continuous or severe pancreatic toxicity was observed.

Work on `CC(C)CC(CC(C)C)NC(=O)[C@H](Cc1cnc[nH]1)NC(=O)CNC(=O)[C@@H](NC(=O)[C@H](C)NC(=O)[C@H](Cc1c[nH]c2ccccc12)NC(=O)[C@H](CCC(N)=O)NC(=O)[C@@H](Cc1ccccc1)NC(=O)COCC(=O)Nc1ccc(CNC(=O)CN2CCN(CC(=O)O)CCN(CC(=O)O)CCN(CC(=O)O)CC2)cc1)C(C)C` [[^177Lu]Lu-NeoB, metal not drawn] yielded a tissue uptake at 1 h ([1]; 40 MBq/400 pmol) of 8.27 ± 0.8 %ID/g, a tissue uptake at 1 h ([1]; 80 MBq/800 pmol) of 4.05 ± 0.4 %ID/g and a tissue uptake at 1 h ([1]; 120 MBq/1200 pmol) of 1.79 ± 0.2 %ID/g. The “Alk. Phosphatase” value ([2]; female, treatment group 1) was 104.70 ± 11.61 U/L and 85.71 ± 8.98 U/L and 68.75 ± 4.76 U/L and 75.00 ± 0.00 U/L and 86.67 ± 16.07 U/L, the Urea ([2]; female, treatment group 1) was 6.84 ± 1.27 mmol/L and 7.24 ± 1.10 mmol/L and 7.29 ± 1.04 mmol/L and 7.00 ± 1.78 mmol/L and 6.00 ± 0.00 mmol/L and the “Alk. Phosphatase” value ([2]; female, treatment group 2) was 88.75 ± 7.50 U/L and 96.60 ± 11.73 U/L and 92.57 ± 8.90 U/L and 75.00 ± 8.16 U/L and 87.50 ± 8.66 U/L. The Urea ([2]; female, treatment group 2) was 8.13 ± 2.95 mmol/L and 9.48 ± 0.83 mmol/L and 7.41 ± 0.62 mmol/L and 6.64 ± 1.07 mmol/L and 7.50 ± 0.71 mmol/L, the “Alk. Phosphatase” value ([2]; female, treatment group 3) was 96.00 ± 15.81 U/L and 93.00 ± 4.65 U/L and 81.43 ± 10.69 U/L and 90.00 ± 9.13 U/L and 110.00 ± 26.46 U/L and the Urea ([2]; female, treatment group 3) was 8.94 ± 1.32 mmol/L and 7.97 ± 1.26 mmol/L and 8.50 ± 1.80 mmol/L and 9.25 ± 2.40 mmol/L and 8.63 ± 2.56 mmol/L. For the same compound, the “Alk. Phosphatase” value ([2]; male, treatment group 1) was 114.00 ± 8.28 U/L and 98.57 ± 4.04 U/L and 70.00 ± 0.00 U/L and 85.00 ± 10.00 U/L and 68.33 ± 20.82 U/L, the Urea ([2]; male, treatment group 1) was 7.44 ± 0.85 mmol/L and 6.60 ± 0.60 mmol/L and 7.00 ± 0.00 mmol/L and 7.50 ± 0.00 mmol/L and the “Alk. Phosphatase” value ([2]; male, treatment group 2) was 75.00 ± 15.81 U/L and 112.40 ± 16.22 U/L and 96.86 ± 9.44 U/L and 85.00 ± 0.00 U/L and 80.00 ± 0.00 U/L. The Urea ([2]; male, treatment group 2) was 7.33 ± 1.26 mmol/L and 7.46 ± 1.14 mmol/L and 7.24 ± 1.41 mmol/L and 7.13 ± 0.85 mmol/L and 8.00 ± 1.35 mmol/L, the “Alk. Phosphatase” value ([2]; male, treatment group 3) was 103.20 ± 13.73 U/L and 99.43 ± 5.59 U/L and 83.75 ± 7.50 U/L and 87.50 ± 8.66 U/L and 80.00 ± 17.80 U/L and the Urea ([2]; male, treatment group 3) was 7.59 ± 1.51 mmol/L and 6.77 ± 0.71 mmol/L and 7.25 ± 0.87 mmol/L and 6.50 ± 0.00 mmol/L and 6.75 ± 1.04 mmol/L. The “ED50 of absorbed kidney dose for hydronephrosis” value [3] was 8.65 Gy and the Pancreatic alterations [4] was “no pancreatic alterations”.
